Test results taken from patent publication US11839630B2, “CAR-T cells targeting IL-1RAP and their use” (ETABLISSEMENT FRANCAIS DU SANG, priority 2017, dated 2023).

Tests used:
IL-1RAP [1] = molecular target: T1, IL-1RAP (Homo sapiens, UniProt Q9NPH3); experiment: Western blot with #E3C3 mAb; format: binding; conditions: leukemic cell line lysates; #E3C3 diluted 1:10^3
T1 sequence (Q9NPH3 21-570): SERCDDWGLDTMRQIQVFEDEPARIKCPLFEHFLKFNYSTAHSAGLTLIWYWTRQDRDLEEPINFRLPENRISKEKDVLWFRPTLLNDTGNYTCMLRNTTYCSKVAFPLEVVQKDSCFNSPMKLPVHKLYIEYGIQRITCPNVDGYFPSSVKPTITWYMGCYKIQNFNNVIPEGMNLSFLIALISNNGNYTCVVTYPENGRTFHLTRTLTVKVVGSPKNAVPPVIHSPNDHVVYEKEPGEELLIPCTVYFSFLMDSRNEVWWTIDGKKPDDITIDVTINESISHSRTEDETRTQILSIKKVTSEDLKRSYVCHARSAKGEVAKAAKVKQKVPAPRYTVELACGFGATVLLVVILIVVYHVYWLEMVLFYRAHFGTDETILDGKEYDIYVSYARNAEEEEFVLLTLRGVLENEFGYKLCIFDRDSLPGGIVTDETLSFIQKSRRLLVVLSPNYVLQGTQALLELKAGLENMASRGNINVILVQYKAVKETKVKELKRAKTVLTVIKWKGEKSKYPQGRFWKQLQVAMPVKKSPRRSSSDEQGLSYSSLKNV
Excerpt: FIG. 1: Use of #E3C3 mAb in western blot. The leukemic cell lines KU812, KG-1, Nalm-20, Jurkat, and Raji are used. Transfected HT1080 cell line with IL-1RAP cDNA variant was used as control. […] Line a: detection of IL-1RAP (72 kDA), Line b: detection of the control actin (43 kDA), *: weak signal.
Whole-cell, subcellular or secreted protein fractions of cells listed in example 1 were obtained after sonication and suspended in RIPA lysis and extraction buffer (ThermoFisher Scientific) supplemented with a protease inhibitor cocktail (complete Mini EDTA-free; Roche, Switzerland). Transfected HT1080 cell line with IL-1RAP cDNA variant 1 (NM_002182.2, NCBI) was used as control. […] Transferred proteins on PDVF membranes were probed overnight with either primary IL-1RAP #E3C3 (diluted at 1:10^3), CD3zeta (BD Pharmigen, clone #8D3) or β-actin (1:10^3, clone AC15, #A5441, Sigma-Aldrich) respectively for IL-1RAP, CAR or β-actin expression. Immunodetection staining was performed with a secondary polyclonal antibody sheep anti-mouse IgG (#515-035-062, Jackson, USA). Detection was performed with a camera and Bio-1D software (Vilber-Lourmat, Collegien, France).

IL-1RAP [2] = molecular target: T1, IL-1RAP; experiment: Confocal microscopy on KU812 and Raji cell lines; format: binding; conditions: KU812 cells
Method: FIG. 4: KU812 (a) and Raji cells lines (b) stained with Fluorescence mAbs [(left panel: anti murine Fc-IgG; medium panel: IL-1RAP (#E3C3)]. Counterstaining was performed by nuclear stain DAPI and superposed to Fluorescent staining (right panel, merge).
Confocal microscopy was assessed on KU812 and Raji cells lines concentrated on slides (Superfrost™ Plus, 4951PLUS4, ThermoFisher Scientific) by Cytospin. Briefly, the cells were stained with Fluorescent monoclonal antibodies: anti murine Fc-IgG; IL-1RAP (#E3C3) and were analyzed with an Olympus BX51 microscope equipped with a QImaging Retiga 2000R camera. Digital images were acquired using the 40× objective and digitalized with Image-Pro Plus (version 6.0, Media Cybernetics). Counterstaining was performed by nuclear stain DAPI (2-(4-Amidinophenyl)-6-indolecarbamidine dihydrochloride, Sigma-Aldrich-France) and superposed to fluorescent staining.

monocyte subpopulation = experiment: IL-1RAP cell surface staining of healthy donor monocytes; format: binding, human; conditions: 2/5 peripheral blood and 3/5 bone marrow from healthy donors
Method: FIG. 23: Effect of IL-1RAP CAR T cells on healthy hematopoietic cells and efficiency of the safety suicide gene iCASP9 cassette. (A) IL-1RAP cell surface expression on peripheral blood (left) or bone marrow (right) cells from healthy donors (n=5). SSC-A/CD45+ allowed discrimination of subpopulations as lymphocytes (SSC-A low), monocytes (CD33+), granulocytes (SSC-A high), or HSCs (CD33−/CD34+). RFI was calculated from isotype staining and provided in each window. (B) Representative (1 of 3) IL-1RAP staining of whole human cord blood cells. IL-1RAP staining is provided for whole CD34+, CD34+/CD38−, and CD34+/CD38+ HSC cord blood subpopulations. […] Percentages were calculated using absolute cell number determined using Trucount™ tubes based on 5000 fluorescent-bead cytometry acquisition. […] The quantification was performed after acquiring 5000 fluorescent beads. […] Cell killing was calculated as follows: % Dead cells=[1−(absolute number of viable cells in AP1903-treated cells/absolute number of viable cells in untreated cells)]×100. […] (G) Absolute quantification of IL-1RAP CAR T cells injected in a tumor (CML KU812, i.v.) xenograft NSG model 24 h after i.p. AP1903 (white bars) treatment (n=3 mice/group). […]

B1: #E3C3: mouse anti-hIL-1RAP monoclonal antibody subclone generated by standard hybridoma technique; VH SEQ ID NO: 2, VL SEQ ID NO: 4 (antibody, V domains shown)
VH: MGWSCIILFLVATATGVNSQVQLQQPGAELMMPGASVKVSCEASGYTFTDSWMHWVKQRPGQGLEWIGAIDPSDSYTTYNQKFTGKATLSVDESSNTAYMQLSSLTSEDSAVYYCARYYSGSNYISPFPYWGQGTLVTVSA
VL: MESQIQVFVFVFLWLSGVDGDIVMTQSHKFMSTSVGDRVTITCKASLDVSTAVAWYQQKPGQSPKLLIYSASYRYTGVPDRFTGSGSGTDFTFTISSVQAEDLAVYYCQQHYSPPFTFGSGTNLEIK
modifications: Amino acid sequence of chain H (VH) of murine scFv anti-IL-1RAP; Amino acid sequence of chain K (VL) of murine scFv anti-IL-1RAP
- detection in western blot (IL-1RAP [1]): reveals KU812
- staining pattern by confocal microscopy (IL-1RAP [2]): cell membrane staining
- RFI of monocyte staining (weak staining) (monocyte subpopulation): < 2
